Substrate in the series: O=C(O)c1ccc(O)c(O)c1
Description: spectrophotometric CHMS formation, nonlinear Michaelis-Menten fit. It counts as biochemical, Pseudarthrobacter phenanthrenivorans. As to conditions: 100 mM glycine-NaOH pH 9.5, 20 °C, co-substrate O2, Fe(II)/L-ascorbate preincubation likely, not stated for the Km.

B1: PcaA (PCA 4,5-dioxygenase) (Pseudarthrobacter phenanthrenivorans Sphe3) (protein)
chain: MTLDKPYNDVPGTTIFDADQARKGYNLNQFCMSLMKPENRERYLADRGAYLDEWPLNPVQRQAVLDIDLNTCIAEGGNIYFLAKIGATHGLSFQQMAGSMTGMSEAAYRDMMIGGGRRPEGNRLKDLDGWTPPEPGEKAETVRQDAPAQYTSALFTSHVPAIGAAMDLGKTEEPYWKKVFSGYEWTREWAKENLPDVVILVYNDHATAFDSSIIPTFVLGTGAEYPVADEGYGPRPVPDVKGYPELAAHIAQSVIQDDFDLTLVNEMVVDHGLTVPLSLVYGDVEEWPVRVIPLAVNVVQYPVPSGRRCYELGRALRRALDKWDGEPLNVQIWGTGGMSHQLQGPRAGLINEEWDNAFLDHLIADPVGLTEWQHMEYVDEAGSEGIELVDWLIARGAMDDQFGGESPEVNHRFYHVPASNTAVGHLVLTNQTD
notes: full-length single-subunit alpha-beta fusion from plasmid pASPHE302; 1302 bp amplicon NdeI/XhoI in pET29c(+), His-column purified from E. coli BL21(DE3); ~45 kDa on SDS-PAGE, predicted 48 kDa
As a reminder, the Km is the substrate concentration at which the rate is half of its maximum. Regarding B1, the Km was 21 ± 1.6 µM.
